For test [1], the target named is p60ΔCD-HA K32A (Homo sapiens (Human)) (UniProt P19438). Description: cell staining, normalized to HA staining, p60ΔCD set at 1.
Test [2] concerns the target p60ΔCD-HA N66F (Homo sapiens (Human)) (UniProt P19438). The test is described as above.
In test [3] the target is p6055-211 (Homo sapiens (Human)) (UniProt P19438). Described as above.
The target of test [4] is p60ΔCD-HA KY19/20AA (Homo sapiens (Human)) (UniProt P19438). Described as above.
The target in test [5] is p60ΔCD-HA E57A (Homo sapiens (Human)) (UniProt P19438). The test is described as above.
Test [6] deals with p60ΔCD-HA Q24A (Homo sapiens (Human)) (UniProt P19438). The description is as above.
In test [7] the target is p60ΔCD-HA R77A (Homo sapiens (Human)) (UniProt P19438). Described as above.
In test [8] the target is p60ΔCD-HA W108T (Homo sapiens (Human)) (UniProt P19438). The description is as above.
Test [9] addresses p60ΔCD-HA (Homo sapiens (Human)) (UniProt P19438). The description is as above.
Test [10] addresses p60ΔCD-HA L112E (Homo sapiens (Human)) (UniProt P19438). The description is as above.
The target in test [11] is p60ΔCD-HA T61A (Homo sapiens (Human)) (UniProt P19438). The description is as above.
The target of test [12] is p60ΔCD-HA DT49/50AA (Homo sapiens (Human)) (UniProt P19438). The description is as above.
Test [13] concerns the target p60ΔCD-HA K19E (Homo sapiens (Human)) (UniProt P19438). Described as above.
The target of test [14] is p60ΔCD-HA K32A (Homo sapiens (Human)) (UniProt P19438). Description: cell staining, % positive cells / % HA positive cells, p60ΔCD set at 1.
Test [15] addresses p60ΔCD-HA N66F (Homo sapiens (Human)) (UniProt P19438). The test is described as above.
The target of test [16] is p6055-211 (Homo sapiens (Human)) (UniProt P19438). The test is described as above.
Test [17] concerns the target p60ΔCD-HA KY19/20AA (Homo sapiens (Human)) (UniProt P19438). The test is described as above.
Test [18] deals with p60ΔCD-HA E57A (Homo sapiens (Human)) (UniProt P19438). The test is described as above.
In test [19] the target is p60ΔCD-HA Q24A (Homo sapiens (Human)) (UniProt P19438). Described as above.
The target in test [20] is p60ΔCD-HA R77A (Homo sapiens (Human)) (UniProt P19438). The test is described as above.
The target of test [21] is p60ΔCD-HA W108T (Homo sapiens (Human)) (UniProt P19438). The description is as above.
For test [22], the target named is p60ΔCD-HA (Homo sapiens (Human)) (UniProt P19438). The description is as above.
The target in test [23] is p60ΔCD-HA L112E (Homo sapiens (Human)) (UniProt P19438). The test is described as above.
For test [24], the target named is p60ΔCD-HA T61A (Homo sapiens (Human)) (UniProt P19438). Described as above.
Test [25] has as its target p60ΔCD-HA DT49/50AA (Homo sapiens (Human)) (UniProt P19438). The description is as above.
The target in test [26] is p60ΔCD-HA K19E (Homo sapiens (Human)) (UniProt P19438). The description is as above.

We go through 2 substances from patent US20100041596A1.

As for “p60-specific monoclonal antibody clone 4.12 (Zymed)”, the clone 4.12 staining normalized against HA staining (relative to p60ΔCD) worked out at 0.01 in test [1]; 0.04 in test [2]; 0.02 in test [3]; 0.14 in test [4]; 0.04 in test [5]; 0.97 in [6]. The clone 4.12 staining normalized against HA staining (relative to p60ΔCD) amounted to 0.99 in [7]; 1.11 in [8]; 1 in test [9]; 1.27 in test [10]; 1.28 in test [11]; 0.96 in test [12]. In [13], this substance came in with a clone 4.12 staining normalized against HA staining (relative to p60ΔCD) of 1.07.

Take “p60-specific monoclonal antibody clone MAB225 (R&D Systems)”: the MAB225 staining normalized against HA staining (relative to p60ΔCD) was 0.36 in test [14]; 0.67 in test [15]; 0.87 in [16]; 0.59 in test [17]; 1.68 in test [18]; 1.06 in test [19]. Besides, the MAB225 staining normalized against HA staining (relative to p60ΔCD) in test [20] turned out to be 1.06; in [21] it was 1.32; in [22], 1; in [23] it was 1.31; in test [24], 1.42; in [25], 1.16. The MAB225 staining normalized against HA staining (relative to p60ΔCD) in [26] was 1.05.
